T1: human SIGLEC11 on CHO-S-hSIGLEC11 cells (human, UniProt Q96RL6 104-561)
T1 sequence: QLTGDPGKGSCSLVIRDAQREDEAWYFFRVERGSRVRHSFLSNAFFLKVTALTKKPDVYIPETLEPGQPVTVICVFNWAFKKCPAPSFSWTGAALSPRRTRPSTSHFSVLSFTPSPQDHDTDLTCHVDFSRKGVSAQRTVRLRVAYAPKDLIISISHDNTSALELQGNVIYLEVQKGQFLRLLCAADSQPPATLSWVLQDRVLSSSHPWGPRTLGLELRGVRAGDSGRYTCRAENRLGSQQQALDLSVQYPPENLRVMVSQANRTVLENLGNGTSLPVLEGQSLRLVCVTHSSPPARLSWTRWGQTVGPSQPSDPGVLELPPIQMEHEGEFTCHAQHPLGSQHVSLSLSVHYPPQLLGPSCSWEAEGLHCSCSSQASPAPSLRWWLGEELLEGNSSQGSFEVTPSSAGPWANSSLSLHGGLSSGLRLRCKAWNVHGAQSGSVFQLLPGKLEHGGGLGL

T2: human SIGLEC4 on CHO-S-hSIGLEC4 cells (human, UniProt P20916 20-516)
T2 sequence: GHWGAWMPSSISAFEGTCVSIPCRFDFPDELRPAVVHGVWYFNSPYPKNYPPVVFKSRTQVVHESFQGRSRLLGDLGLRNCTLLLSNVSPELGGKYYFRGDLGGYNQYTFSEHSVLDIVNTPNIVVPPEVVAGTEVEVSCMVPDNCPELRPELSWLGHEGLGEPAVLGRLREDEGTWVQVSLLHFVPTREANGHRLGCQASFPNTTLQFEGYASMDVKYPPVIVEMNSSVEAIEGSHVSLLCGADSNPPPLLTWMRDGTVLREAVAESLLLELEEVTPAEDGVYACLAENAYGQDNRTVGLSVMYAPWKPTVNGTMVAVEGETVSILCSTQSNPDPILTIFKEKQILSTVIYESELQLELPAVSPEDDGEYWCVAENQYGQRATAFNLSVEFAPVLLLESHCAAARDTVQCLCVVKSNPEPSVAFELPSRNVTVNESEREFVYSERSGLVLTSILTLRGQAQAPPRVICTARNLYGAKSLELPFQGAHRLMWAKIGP


Assays:
Test in all cases: flow cytometry, CHO-S cells expressing the target; as to Percentage of Positive Cells: test concentration or dose not given here
[1] = target: human SIGLEC8 on CHO-S-hSIGLEC8 cells (human, UniProt Q9NYZ4 17-363)
Experimental: (§1) CHO-S-hSIGLEC15 cells, CHO-S-mSIGLEC15 cells, CHO-S-fasSIGLEC15 cells or CHO-S-dSIGLEC15 cells were transferred to a 96-well plate at a density of 5×10⁴ cells/well respectively. Serially diluted sample anti-SIGLEC15 antibodies were added to the 96-well plate, and incubated at 4° C. for 30 min. Then, the cells were incubated with the secondary antibody anti-hIgG-Fc-Alex Flour 647 (RL1-H) (Jackson ImmunoResearch Laboratories, Inc., 109-606-170) at 4° C. in the dark for 15 minutes before flow cytometry analysis.
(§2) Another similar experiment was performed to determine whether the anti-SIGLEC15 antibodies can bind with other SIGLEC family proteins. CHO-S-hSIGLEC1 cells (expressing hSIGLEC1, SEQ ID NO: 49)), CHO-S-hSIGLEC2 cells (expressing hSIGLEC2, SEQ ID NO: 50), CHO-S-hSIGLEC4 cells (expressing hSIGLEC4, SEQ ID NO: 51), CHO-S-hSIGLEC5 cells (expressing hSIGLEC5, SEQ ID NO: 52), CHO-S-hSIGLEC6 cells (expressing hSIGLEC6, SEQ ID NO: 53), CHO-S-hSIGLEC7 cells (expressing hSIGLEC7, SEQ ID NO: 54), CHO-S-hSIGLEC8 cells (expressing hSIGLEC8, SEQ ID NO: 55), CHO-S-hSIGLEC9 cells (expressing hSIGLEC9, SEQ ID NO: 56), CHO-S-hSIGLEC10 cells (expressing hSIGLEC10, SEQ ID NO: 57), CHO-S-hSIGLEC11 cells (expressing hSIGLEC11, SEQ ID NO: 58), CHO-S-hSIGLEC12 cells (expressing hSIGLEC12, SEQ ID NO: 59), CHO-S-hSIGLEC14 cells (expressing hSIGLEC14, SEQ ID NO: 60) or CHO-S-hSIGLEC16 cells (expressing hSIGLEC16, SEQ ID NO: 61) were used.

[2] = target: T1, human SIGLEC11 on CHO-S-hSIGLEC11 cells
Experimental: as §1, §2

[3] = target: human SIGLEC6 on CHO-S-hSIGLEC6 cells (human, UniProt O43699 27-347)
Experimental: as §1, §2

[4] = target: T2, human SIGLEC4 on CHO-S-hSIGLEC4 cells
Experimental: as §1, §2

[5] = target: human SIGLEC12 on CHO-S-hSIGLEC12 cells (human, UniProt Q96PQ1 19-481)
Experimental: as §1, §2

Chain of human SIGLEC6 on CHO-S-hSIGLEC6 cells (O43699 27-347): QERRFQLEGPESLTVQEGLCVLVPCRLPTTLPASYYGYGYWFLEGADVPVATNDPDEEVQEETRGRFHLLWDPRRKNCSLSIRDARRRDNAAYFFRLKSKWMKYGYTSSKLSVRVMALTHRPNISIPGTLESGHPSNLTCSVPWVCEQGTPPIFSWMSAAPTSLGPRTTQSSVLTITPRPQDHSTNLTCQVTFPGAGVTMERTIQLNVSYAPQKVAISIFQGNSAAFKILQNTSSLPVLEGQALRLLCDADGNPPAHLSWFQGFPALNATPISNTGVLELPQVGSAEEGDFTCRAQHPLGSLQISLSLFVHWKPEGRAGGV
Chain of human SIGLEC12 on CHO-S-hSIGLEC12 cells (Q96PQ1 19-481): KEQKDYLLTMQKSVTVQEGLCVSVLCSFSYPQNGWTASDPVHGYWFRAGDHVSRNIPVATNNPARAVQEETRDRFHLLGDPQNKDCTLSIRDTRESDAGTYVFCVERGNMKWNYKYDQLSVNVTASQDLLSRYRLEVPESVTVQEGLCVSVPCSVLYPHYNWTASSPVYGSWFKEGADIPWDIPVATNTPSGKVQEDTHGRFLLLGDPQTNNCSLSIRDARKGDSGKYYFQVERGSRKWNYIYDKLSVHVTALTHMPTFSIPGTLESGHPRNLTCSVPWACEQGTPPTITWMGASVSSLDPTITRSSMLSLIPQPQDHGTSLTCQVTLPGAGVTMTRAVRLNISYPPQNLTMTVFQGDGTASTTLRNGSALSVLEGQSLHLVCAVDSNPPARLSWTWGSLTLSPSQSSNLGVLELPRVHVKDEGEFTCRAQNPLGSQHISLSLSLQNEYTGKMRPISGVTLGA
Chain of human SIGLEC8 on CHO-S-hSIGLEC8 cells (Q9NYZ4 17-363): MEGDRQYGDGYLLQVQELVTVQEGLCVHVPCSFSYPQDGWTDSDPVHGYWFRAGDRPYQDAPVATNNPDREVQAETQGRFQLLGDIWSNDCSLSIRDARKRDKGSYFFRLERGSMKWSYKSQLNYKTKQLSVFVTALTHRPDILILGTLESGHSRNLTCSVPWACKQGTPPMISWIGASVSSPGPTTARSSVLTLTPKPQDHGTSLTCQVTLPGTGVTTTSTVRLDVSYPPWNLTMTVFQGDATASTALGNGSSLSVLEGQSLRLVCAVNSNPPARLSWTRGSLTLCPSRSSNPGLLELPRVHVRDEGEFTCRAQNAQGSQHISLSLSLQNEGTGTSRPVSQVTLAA

Row | Percentage of Positive Cells [1] [%] | binding result [1] | Percentage of Positive Cells [2] [%] | binding result [2] | Percentage of Positive Cells [3] [%] | binding result [3] | Percentage of Positive Cells [4] [%] | binding result [4] | Percentage of Positive Cells [5] [%] | binding result [5] | Binder
1 | 0.3 | no binding | 0.1 | no binding | 0.5 | no binding | 1.2 | no binding | 0.1 | no binding | anti-SIGLEC15 antibody 10C9 (antibody, human IgG1, V domains shown) VH: QVQLVQSGAEVKKPGATVKVSCKASGYTFTNYGFSWVRQAPGQGLEWMGWINTYNDNTNYAQKFQGRVTMTTDTSTSTAYMELRSLRSDDTAVYYCARDGLWFGELPHYFDYWGQGTLVTVSS VL: DIQLTQSPLSSPVTLGQPASISCRSSQSLVNSDGETFLSWLQQRPGQPPRLLIYKISNRFSGVPDRFSGSGAGTDFTLKISRVEAEDVGVYYCMQATQFPHTFGQGTKLEIK
2 | 0.6 | no binding | 0.2 | no binding | 1.5 | no binding | 0.8 | no binding | 0.4 | no binding | anti-SIGLEC15 antibody 23F4 (antibody, human IgG1, V domains shown) VH: QVQLQQWGAGLLKPSETLSLTCAVYGGSFSGYFWSWIRQPPGKGLEWIGEINHSGSTNYNPSLKSRVTLSVDTSKNQFSLKLSSVTAADTAVYYCAREGDSSSWGNWFDPWGQGTLVTVSS VL: EIVLTQSPGTLSLSPGERATLSCRASQSVSSSYLAWYQQKPGQAPRFLIYGASSRATGIPDRFSGSGSGTDFTLTISRLEPEDFAVYYCQQFGNSPLTFGGGTKVEIK
3 | 0.1 | no binding | 0.1 | no binding | 0.7 | no binding | 1.1 | no binding | 0 | no binding | anti-SIGLEC15 antibody 10A7 (antibody, human IgG1, V domains shown) VH: EVQLVQSGGGLVQPGGSLRLSCAASGFTFSNYEMNWVRQAPGKGLEWISYISNSGSTIYYADSVKGRFTISRDDAKNSLYLQMNSLRAEDTAVYYCAREDYDSSGYYWFDPWGQGTPVTVSS VL: DIQLTQSPSSVSASVGDRVTITCRASQGISSWLAWYQQKPGKAPKLLIYAASSLQSGVPSRFSGSGSGTDFTLTINSLQPEDFATYYCQQTNSFPLTFGGGTKVEIK
